The target of the assay is Human recombinant full length DDX3X (human) (UniProt O00571).

Consider “Human recombinant full length DDX3X (from UniProt O00571 1-662) (enzyme)”, for which the helicase activity (unwinding of dsRNA Substrate *R18: R38) against DDX3X concentration, cooperativity index nH turned out to be 1.5; the helicase activity (unwinding of dsRNA Substrate *R18: R38) against DDX3X concentration, half-maximal enzyme concentration K1/2 worked out at 0.26 µM; the nuclease (RNaseH2-like) activity against DDX3X concentration, cooperativity index nH (no cooperativity observed) was found to be 0.7.

The values above are taken from article PMC7672437.
